Substrate in data set [1]: O=c1[nH]c(=O)[nH]c(=O)[nH]1
The experiment in a line: purified protein. The data set is classed as biochemical, Pseudolabrys sp. Root1462. The settings on record: 50.0 °C.

Substrate in data set [2]: O=c1[nH]c(=O)[nH]c(=O)[nH]1
The experiment in a line: purified protein. The settings on record: 50.0 °C. The data set is classed as biochemical, Bradyrhizobium diazoefficiens.

As a reminder, the Km is the substrate concentration at which the rate is half of its maximum. A word on the kcat: it is the maximal rate divided by the concentration of active sites.

B1: CAH-PR (Pseudolabrys sp. Root1462) (protein)
chain: MPIAKVHRISASSPNDVSGLEAAIASGRIDPKGVIAVLGKTEGNGLVNDFSRGLATTALTLLFERHLPQAEAAQICLVMSGGTEGGMAPHWIVFERGKGEGGRSPALAIGRAHTLQLPYEQLGRLGEVDQVAAGVRAAMEDAGIADPADVHFVQIKCPLLTAQRIAEAEARGAAVATRDTLKSMSLSRAASALGAAVALGEIDRAAITEAQIGSDWSLWSGRASTSAGIELVNHEIVVLGMSKDWSGPLAIDHAVMRDGIDIEPVRAALQRLGLGAAGQLDPAQRNKMVALLAKAEASHDGRLRGHRHTMLDDSDIASTRHARGFVCGALAGLVGHAEIYVSGGAEHQGPDGGGPVAVIVDRG
notes: codon-optimised gene expressed in Bacillus subtilis, purified; no tag mentioned
On to B1, for which, in data set [1], the Km was 115 ± 36 µM and the kcat amounted to 10.1 ± 2.7 s⁻¹.

B2: CAH-BD (Bradyrhizobium diazoefficiens USDA 110) (protein)
chain: MRTTSVGVFKIVTKGPGDVSGLMAMIGSGAIDPKSILAVLGKTEGNGGVNDFTREYAVAALCTALAPQLGLSPEEVEQRIAFVMSGGTEGVLSPHITVFTRREVERRPAGLSGKRLSIGMAHTRDFLPEELGRAAQIAETAAAVKAAMADAGIADPADVHFVQIKCPLLTSDRVEAASARGNKTATTSAYGSMAYSRGASALGVAVALGETGSDISDGDVLRRYDLFSKVASTSAGIELMHNVVIVLGNSAASASEFEIGHAVMNDAIDAAAVTSALKCVGLGVAPQAEAGRELVNIFAKAEASPDGSVRGFRHTMLEDTDISSTRHARAAVGGLIAGLAGTGAVYVSGGAEHQGPAGGGPVAVIARLSD
notes: as for B1
As for B2, in data set [2], the Km came to 103 ± 29 µM and the kcat was 10.6 ± 1.9 s⁻¹.
